According to paper PMC7655957:

How the values were obtained:
HOOK1 (Homo sapiens) = HOOK1 (Homo sapiens) (UniProt Q9UJC3); details: cited from earlier work
HOOK3 (Homo sapiens) = HOOK3 (Homo sapiens) (UniProt Q86VS8); details: cited from earlier work
[1] = biological target: WT_(ZIP+)/WT_(ZIP−), BICD2_(1–98) heterodimer with C-terminal ZIP+/ZIP− leucine zipper (mouse (cDNA, methods); called human in the results and in the legend of Fig. 1) (UniProt Q921C5); experiment: ITC; LIC1_(433–458) peptide titrated into ZIP+/ZIP− BICD2 heterodimers in the cell; 20 mM HEPES (pH 7.5), 100 mM NaCl, 0.5 mM TCEP; temperature given in the figure
[2] = biological target: Y46D_(ZIP+)/WT_(ZIP−), half-functional BICD2_(1–98) heterodimer with C-terminal ZIP+/ZIP− leucine zipper (mouse (cDNA, methods); called human in the results and in the legend of Fig. 1) (UniProt Q921C5); experiment: as above

Sequence of LIC1_(433–458), amphipathic helix of the dynein light intermediate chain-1 (Q9Y6G9 433-458): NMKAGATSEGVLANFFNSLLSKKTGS
Sequence of LIC1 (Q9Y6G9 whole entry): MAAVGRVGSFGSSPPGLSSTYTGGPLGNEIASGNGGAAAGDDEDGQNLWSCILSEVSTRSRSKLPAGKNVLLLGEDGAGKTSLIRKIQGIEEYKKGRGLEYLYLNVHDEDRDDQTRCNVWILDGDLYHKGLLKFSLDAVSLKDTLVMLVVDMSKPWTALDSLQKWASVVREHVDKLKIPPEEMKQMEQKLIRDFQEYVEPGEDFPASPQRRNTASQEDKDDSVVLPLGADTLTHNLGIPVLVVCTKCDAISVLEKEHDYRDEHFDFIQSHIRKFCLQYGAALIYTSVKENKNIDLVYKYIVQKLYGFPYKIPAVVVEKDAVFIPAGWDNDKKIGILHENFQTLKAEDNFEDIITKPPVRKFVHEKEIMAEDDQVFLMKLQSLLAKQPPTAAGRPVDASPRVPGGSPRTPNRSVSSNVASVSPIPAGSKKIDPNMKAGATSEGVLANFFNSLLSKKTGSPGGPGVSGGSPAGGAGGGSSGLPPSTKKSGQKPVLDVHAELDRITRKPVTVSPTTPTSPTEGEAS
Sequence of HOOK3 (Homo sapiens) (Q86VS8 whole entry): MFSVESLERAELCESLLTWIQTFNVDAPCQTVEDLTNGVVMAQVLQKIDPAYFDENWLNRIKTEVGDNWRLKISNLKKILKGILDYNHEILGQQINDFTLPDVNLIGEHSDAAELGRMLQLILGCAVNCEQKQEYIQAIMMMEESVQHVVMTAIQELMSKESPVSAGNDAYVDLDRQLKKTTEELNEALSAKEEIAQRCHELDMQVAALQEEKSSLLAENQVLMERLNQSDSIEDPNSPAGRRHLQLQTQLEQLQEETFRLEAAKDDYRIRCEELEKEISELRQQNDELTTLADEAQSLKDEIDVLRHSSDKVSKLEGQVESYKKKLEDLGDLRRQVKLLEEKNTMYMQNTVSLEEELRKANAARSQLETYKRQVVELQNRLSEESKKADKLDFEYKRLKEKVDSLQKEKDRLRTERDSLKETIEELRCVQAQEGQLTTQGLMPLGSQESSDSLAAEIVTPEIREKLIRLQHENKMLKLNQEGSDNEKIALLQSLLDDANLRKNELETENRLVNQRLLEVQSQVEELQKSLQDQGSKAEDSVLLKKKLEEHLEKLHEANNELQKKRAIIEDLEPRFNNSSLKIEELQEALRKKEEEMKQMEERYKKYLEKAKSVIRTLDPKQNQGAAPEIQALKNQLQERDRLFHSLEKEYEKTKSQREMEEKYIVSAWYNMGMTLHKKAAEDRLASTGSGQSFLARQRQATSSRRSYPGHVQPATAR
Sequence of HOOK1 (Homo sapiens) (Q9UJC3 whole entry): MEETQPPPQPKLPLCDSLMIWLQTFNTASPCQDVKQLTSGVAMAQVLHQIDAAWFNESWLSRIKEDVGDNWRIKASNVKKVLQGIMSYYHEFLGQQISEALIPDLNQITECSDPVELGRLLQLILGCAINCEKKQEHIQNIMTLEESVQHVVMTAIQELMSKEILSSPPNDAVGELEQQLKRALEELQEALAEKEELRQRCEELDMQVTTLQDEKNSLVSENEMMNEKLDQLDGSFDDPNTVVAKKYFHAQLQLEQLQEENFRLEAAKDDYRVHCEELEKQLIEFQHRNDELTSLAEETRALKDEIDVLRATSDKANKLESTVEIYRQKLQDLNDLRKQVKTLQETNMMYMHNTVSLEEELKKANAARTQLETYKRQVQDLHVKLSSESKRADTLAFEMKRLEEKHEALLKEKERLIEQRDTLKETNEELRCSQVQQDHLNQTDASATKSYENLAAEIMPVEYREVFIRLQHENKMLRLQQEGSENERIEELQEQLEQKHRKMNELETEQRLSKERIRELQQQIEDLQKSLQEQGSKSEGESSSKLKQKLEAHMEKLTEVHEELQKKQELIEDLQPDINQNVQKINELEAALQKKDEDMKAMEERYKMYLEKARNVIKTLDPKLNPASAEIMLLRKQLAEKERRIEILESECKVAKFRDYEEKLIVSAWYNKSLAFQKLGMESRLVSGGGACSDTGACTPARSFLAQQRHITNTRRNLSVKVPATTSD

Row | Kd [1] [µM] | stoichiometry N [1] | Kd [2] [µM] | stoichiometry N [2] | Substance | Kd (HOOK1 (Homo sapiens)) [µM] | Kd (HOOK3 (Homo sapiens)) [µM]
1 | – | – | – | – | LIC1 (from UniProt Q9Y6G9) | 15.7 | 6.3
2 | 6.8 | 2 | 6.2 | 1.1 | LIC1_(433–458), amphipathic helix of the dynein light intermediate chain-1 (from UniProt Q9Y6G9 433-458) (peptide) | – | –
